The values that follow come from publication PMC11436948 (Nature Communications, 2024).

Where two headings read alike, the source gives them in different places.

The target in series [1] is ^bioχψδγ3δ’ clamp loader complex containing N-terminally biotinylated χ (E. coli) (UniProt P28905). In words: SPR. In general terms: SPR reads the build-up and loss of mass on a sensor chip optically.
Series [2] has the same target. In words: SPR. This is another data set of the same source.
The series “cryo-EM structure” concerns the molecule itself. In words: cryo-EM structure.

In general, Kd refers to the equilibrium constant for the complex coming apart. Higher therefore signals weaker binding.

Consider “E. coli β2 sliding clamp (from UniProt P0A988) (natural protein)”, for which the Kd was 13.3 nM in series [1] and 400 nM in series [2].

B1: γ subunit of the E. coli clamp loader complex (natural protein)
chain: MSYQVLARKWRPQTFADVVGQEHVLTALANGLSLGRIHHAYLFSGTRGVGKTSIARLLAKGLNCETGITATPCGVCDNCREIEQGRFVDLIEIDAASRTKVEDTRDLLDNVQYAPARGRFKVYLIDEVHMLSRHSFNALLKTLEEPPEHVKFLLATTDPQKLPVTILSRCLQFHLKALDVEQIRHQLEHILNEEHIAHEPRALQLLARAAEGSLRDALSLTDQAIASGDGQVSTQAVSAMLGTLDDDQALSLVEAMVEANGERVMALINEAAARGIEWEALLVEMLGLLHRIAMVQLSPAALGNDMAAIELRMRELARTIPPTDIQLYYQTLLIGRKELPYAPDRRMGVEMTLLRALAFHPRMPLPEPEVPRQSFAPVAPTAVMTPTQVPPQPQSAPQQAPTVPLPETTSQVLAARQQLQRVQGATKAKKE
With B1, the binding result in the series “cryo-EM structure” is “binds”.
